Here are results for three molecules from publication PMC5738090, “Functional implications of hexameric assembly of RraA proteins from Vibrio vulnificus” (PLoS ONE, 2017).

What all share (assay): SEC-MALS; Superdex 200 Increase 5/150 GL; proteins at 3 mg/ml; 20 mM Tris-HCl pH 8.0, 300 mM NaCl, 5% glycerol, 2 mM 2-mercaptoethanol
The target in data set [1] is VvRraA1 (RraA ortholog 1 of Vibrio vulnificus), hexahistidine-tagged (Vibrio vulnificus MO6-24/O).
The target in data set [2] is VvRraA2 (RraA ortholog 2 of Vibrio vulnificus), hexahistidine-tagged (Vibrio vulnificus MO6-24/O).
Data set [3] deals with the molecule itself.

The term stoichiometry N denotes a count of units in the complex or per binding partner. “VvRraA1 (RraA ortholog 1 of Vibrio vulnificus), hexahistidine-tagged (natural protein)”: the stoichiometry N in data set [1] stood at 6.
“VvRraA2 (RraA ortholog 2 of Vibrio vulnificus), hexahistidine-tagged (natural protein)” had a stoichiometry N in data set [2] of 3.

B1: E. coli RraA (natural protein)
chain: MKYDTSELCDIYQEDVNVVEPLFSNFGGRASFGGQIITVKCFEDNGLLYDLLEQNGRGRVLVVDGGGSVRRALVDAELARLAVQNEWEGLVIYGAVRQVDDLEELDIGIQAMAAIPVGAAGEGIGESDVRVNFGGVTFFSGDHLYADNTGIILSEDPLDIE
notes: RraA, regulator of ribonuclease activity A, Escherichia coli; the construct is not described here; Hexamer by SEC-MALS (87.05 kDa); also called EcRraA
On to B1, for which the “stoichiometry N” value in data set [3] turned out to be 6.
